Target: T1, Ribonuclease A (scrambled, oxidized) (Bos taurus, UniProt P61823)
T1 chain: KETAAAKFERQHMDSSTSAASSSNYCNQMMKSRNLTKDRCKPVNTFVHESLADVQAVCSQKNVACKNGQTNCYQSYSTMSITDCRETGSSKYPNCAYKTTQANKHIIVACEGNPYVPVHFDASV
Test: intrinsic fluorescence quenching

Kd: ~300 nM
B1: MET 25-932 (protein)
chain: ECKEALAKSEMNVNMKYQLPNFTAETPIQNVILHEHHIFLGATNYIYVLNEEDLQKVAEYKTGPVLEHPDCFPCQDCSSKANLSGGVWKDNINMALVVDTYYDDQLISCGSVNRGTCQRHVFPHNHTADIQSEVHCIFSPQIEEPSQCPDCVVSALGAKVLSSVKDRFINFFVGNTINSSYFPDHPLHSISVRRLKETKDGFMFLTDQSYIDVLPEFRDSYPIKYVHAFESNNFIYFLTVQRETLDAQTFHTRIIRFCSINSGLHSYMEMPLECILTEKRKKRSTKKEVFNILQAAYVSKPGAQLARQIGASLNDDILFGVFAQSKPDSAEPMDRSAMCAFPIKYVNDFFNKIVNKNNVRCLQHFYGPNHEHCFNRTLLRNSSGCEARRDEYRTEFTTALQRVDLFMGQFSEVLLTSISTFIKGDLTIANLGTSEGRFMQVVVSRSGPSTPHVNFLLDSHPVSPEVIVEHTLNQNGYTLVITGKKITKIPLNGLGCRHFQSCSQCLSAPPFVQCGWCHDKCVRSEECLSGTWTQQICLPAIYKVFPNSAPLEGGTRLTICGWDFGFRRNNKFDLKKTRVLLGNESCTLTLSESTMNTLKCTVGPAMNKHFNMSIIISNGHGTTQYSTFSYVDPVITSISPKYGPMAGGTLLTLTGNYLNSGNSRHISIGGKTCTLKSVSNSILECYTPAQTISTEFAVKLKIDLANRETSIFSYREDPIVYEIHPTKSFISGGSTITGVGKNLNSVSVPRMVINVHEAGRNFTVACQHRSNSEIICCTTPSLQQLNLQLPLKTKAFFMLDGILSKYFDLIYVHNPVFKPFEKPVMISMGNENVLEIKGNDIDPEAVKGEVLKVGNKSCENIHLHSEAVLCTVPNDLLKLNSELNIEWKQAISSTVLGKVIVQPDQNFT
modifications: scrambled disulfides of RNase A

Source: publication PMC9604360 (2022)
